Data taken from US20250277030A1, “ANTI-NAPI2B ANTIBODIES AND METHODS OF USE” (Zymeworks BC Inc., priority 2022, published 2025).

T1: NaPi2b expressed on IGROV-1 cells (Homo sapiens, UniProt O95436)
T1 construct: IGROV-1 cells express endogenous NaPi2b at a high level; endogenous in cells; host or cells: IGROV-1
T1 sequence (O95436 1-690): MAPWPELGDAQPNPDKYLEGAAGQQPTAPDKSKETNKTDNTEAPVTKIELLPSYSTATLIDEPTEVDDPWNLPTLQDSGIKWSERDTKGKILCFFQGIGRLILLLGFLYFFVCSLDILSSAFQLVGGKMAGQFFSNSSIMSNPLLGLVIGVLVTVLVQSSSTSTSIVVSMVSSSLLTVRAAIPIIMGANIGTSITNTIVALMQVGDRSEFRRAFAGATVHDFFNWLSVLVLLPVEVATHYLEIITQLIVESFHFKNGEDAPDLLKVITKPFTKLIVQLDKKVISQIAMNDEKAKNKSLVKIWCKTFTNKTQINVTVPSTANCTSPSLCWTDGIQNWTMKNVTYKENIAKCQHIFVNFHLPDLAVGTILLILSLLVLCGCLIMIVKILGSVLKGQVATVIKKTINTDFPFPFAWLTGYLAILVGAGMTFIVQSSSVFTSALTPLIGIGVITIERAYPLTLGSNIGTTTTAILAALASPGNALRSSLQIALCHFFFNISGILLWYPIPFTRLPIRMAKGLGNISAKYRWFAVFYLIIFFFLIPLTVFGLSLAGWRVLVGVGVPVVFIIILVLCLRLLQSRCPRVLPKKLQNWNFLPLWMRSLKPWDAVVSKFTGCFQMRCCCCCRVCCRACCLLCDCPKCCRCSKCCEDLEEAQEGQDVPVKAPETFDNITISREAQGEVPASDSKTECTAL

B1: v18993-DL2 (conjugate, chains of the INN, looked up)
VH: EVQLVESGGGLVQPGGSLRLSCAASGFSFSDFAMSWVRQAPGKGLEWVATIGRVAFHTYYPDSMKGRFTISRDNSKNTLYLQMNSLRAEDTAVYYCARHRGFDVGHFDFWGQGTLVTVSS
VL: DIQMTQSPSSLSASVGDRVTITCRSSETLVHSSGNTYLEWYQQKPGKAPKLLIYRVSNRFSGVPSRFSGSGSGTDFTLTISSLQPEDFATYYCFQGSFNPLTFGQGTKVEIK
modifications: drug-linker DL2
B2: v18993-DL1 (conjugate, chains of the INN, looked up)
VH: B1 VH
VL: B1 VL
modifications: drug-linker DL1
B3: v29452: humanized anti-NaPi2b IgG1/kappa antibody H1L3; VH SEQ ID NO:24, VL SEQ ID NO:30 (antibody, V domains shown)
VH: QVQLVQSGAEVKKPGASVKVSCKASGFTFTSYNVHWVRQAPGQGLEWMGAISPGNGDLSYAQKFQGRVTMTRDTSTSTVYMELSSLRSEDTAVYYCARGRTGMGAVDYWGQGTLVTVSS
VL: DVQMTQSPSSLSASVGDRVTITCRASQDVYSYLNWYQQKPGKAVKLLIYYTSRLQSGVPSRFSGSGSGTDYTLTISSLQPEDIATYYCQQYNIFPWTFGQGTKLEIK
modifications: v29452, v29456, v29460 VH (H1); v29449, v29450, v29451, v29452 VL (L3)

How the values were obtained:
OVCAR-3 cells = experiment: In vitro cytotoxicity, 2D monolayer, CellTiter-Glo, OVCAR-3; assay type: cell-based, human; conditions: OVCAR-3, 4 days; IC = Incomplete Curve
Protocol: (§1) The cytotoxicity as measured by cell growth inhibition of the humanized variant v29456 (H1L2) conjugated to various drug-linkers were assessed in a panel of NaPi2b-expressing cell lines as described below. Cell lines used were OVCAR-3 (ovarian carcinoma), IGROV-1 (ovarian carcinoma), and HCC-78 (lung carcinoma). ADCs with antibody palivizumab (anti-RSV) (v22277) were used as non-targeted controls.
(§2) OVCAR-3 were cultured in RPMI 1640 Medium, ATCC modification (Thermo Fisher Scientific, Waltham, MA) supplemented with 20% fetal bovine serum (FBS) (Thermo Fisher Scientific, Waltham, MA) and 0.01 μg/mL human insulin (Sigma-Aldrich, Oakville, ON). […] After incubation, CellTiter-Glo® reagent (Promega Corporation, Madison, WI) was added in all wells and luminescence corresponding to ATP present in each well was measured using a Synergy™H1 plate reader (BioTek Instruments, Winooski, VT). Percent cytotoxicity values were calculated by the following formula: (1−(Luminescence of Treated Cells/Average Luminescence of Untreated Cells))×100, and plotted against test article concentration using GraphPad Prism 9 software (GraphPad Software, San Diego, CA). EC50 values were calculated based on a non-linear regression log(agonist) versus response, variable slope (four parameters) by GraphPad Prism 9.

IGROV-1 cells = experiment: In vitro cytotoxicity, 2D monolayer, CellTiter-Glo, IGROV-1; assay type: cell-based, human; conditions: IGROV-1, 4 days
Protocol: as §1, §2

HCC-78 cells = experiment: In vitro cytotoxicity, 2D monolayer, CellTiter-Glo, HCC-78; assay type: cell-based, human; conditions: HCC-78, 4 days
Protocol: as §1, §2

[1] = molecular target: T1, NaPi2b expressed on IGROV-1 cells; experiment: Cellular binding of bivalent antibodies to IGROV-1 cells by flow cytometry (Example 13); conditions: IGROV-1, 24 hours at 4° C., NB = no cellular binding
Protocol: IGROV-1 cells express endogenous NaPi2b at a high level.
Briefly, cells were seeded at 50,000 cells/well in conical-bottom 96-well plates and treated with test antibody for 24 hours at 4° C. to prevent internalization. Palivizumab (anti-RSV antibody, v22277) was included as a negative control. […] Following incubation, cells were washed and stained with anti-Human IgG Fc AF647 conjugate (Jackson Immuno Research Labs, West Grove, PA; Cat. No. 109-605-098) at 4° C. for 30 min. Following incubation and washing, fluorescence was detected by flow cytometry on a BD LSRFortessa™ Cell Analyzer (BD Biosciences, Franklin Lake, NJ) with 1,000 minimum events collected per well. The AF647/APC-A GeoMean (fluorescence signal geometric mean, proportional to anti-Human AF647 binding) was calculated for the live cell population using FlowJo™ Version 10.8.1 (BD Biosciences, Franklin Lake, NJ) and plotted for each test antibody using GraphPad Prism Version 9 (GraphPad Software, San Diego, CA).

dsDNA = experiment: NS-ELISA non-specific binding, dsDNA; conditions: mAb at 100 nM
Protocol: (§3) The isoelectric point was measured by capillary isoelectric focusing (cIEF), the propensity for self-aggregation was measured by Affinity-capture self-interaction nanoparticle spectroscopy (AC-SINS) and non-specific binding was measured by NS-ELISA, as described below.
(§4) NS-ELISA was used to measure the propensity of the antibodies to bind to a range of biomolecules to emulate the undesirable non-specific interactions to biological matrices in vivo as described below.
(§5) NS-ELISA was carried out in Corning®96-well EIA/RIA Easy Wash™ Clear Flat Bottom Polystyrene High Bind Microplate coated overnight at 4° C. with 50 μL of Heparin (Sigma, H3149) diluted with 50 mM sodium carbonate pH 9.6 to a final concentration of 250 μg/mL. The plate was incubated for 2 days at room temperature, wells that were coated with heparin were not covered to allow air dry. […] Reactions were stopped after approximately 10 minutes by adding 100 μL of 1 M HCl to each well, and absorbance was read at 450 nm. Binding scores were calculated as the ratio of the ELISA signal of the antibody (antibody-treated) to the signal of a well containing buffer instead of the primary antibody (untreated). The cutoffs considered for each binding molecule (ssDNA, KLH, insulin, dsDNA and heparin) were internally calculated, based on the average of Zymeworks Inc. produced antibodies and antibodies benchmarks published in the literature.

Insulin = molecular target: T2, Insulin (Homo sapiens, UniProt P01308); experiment: NS-ELISA non-specific binding, insulin; conditions: mAb at 100 nM
T2 construct: purchased Sigma-Aldrich 19278
T2 sequence (P01308 25-54 limits assumed): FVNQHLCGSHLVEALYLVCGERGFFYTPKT
T2 sequence (P01308 90-110 limits assumed): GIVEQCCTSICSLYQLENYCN
Protocol: as §3, §4, §5

[2] = Capillary isoelectric focusing (cIEF); assay type: physicochemical; conditions: main isoform; 0.5 mg/mL
Protocol: as §3
cIEF was carried out using Maurice C. (ProteinSimple®) system, System Suitability Kit and Method Development Kit. System suitability standard, fluorescence calibration standard, cartridge and samples were prepared according to vendor's recommendations. The capillary was automatically calibrated with a fluorescence standard preconditioned with Maurice cIEF System Suitability Kit to ensure the capillary was functioning properly. The antibody samples were diluted to a concentration of 0.5 mg/mL in a final volume of 40 μL in Gibco™ Distilled Water, and mixed Maurice cIEF Method Development Kit Samples. The samples were then vortexed, centrifuged and the supernatant pipetted into individual wells of a 96-well plate. All electropherograms were detected with UV absorbance at 280 nm. All data analyses were performed using vendor software Compass for iCE (ProteinSimple®).

[3] = Thermal stability by differential scanning calorimetry (DSC); assay type: physicochemical; conditions: 0.4 mg/mL in PBS, scan 20° C. to 100° C. at 60° C./hr
Protocol: The thermal stability of the humanized antibody variants was assessed by differential scanning calorimetry (DSC) as described below.
400 μL of purified samples primarily at concentrations of 0.4 mg/mL in PBS were used for DSC analysis with a VP-Capillary DSC (Malvern Panalytical Inc., Westborough, MA). At the start of each DSC run, 5 buffer blank injections were performed to stabilize the baseline, and a buffer injection was placed before each sample injection for referencing. Each sample was scanned from 20° C. to 100° C. at a 60° C./hr rate, with low feedback, 8 sec filter, 3 min pre-scan thermostat, and 70 psi nitrogen pressure. The resulting thermograms were referenced and analyzed using Origin 7 software (OriginLab Corporation, Northampton, MA) to determine melting temperature (Tm) as an indicator of thermal stability.

[4] = NS-ELISA non-specific binding, heparin; conditions: mAb at 100 nM
Protocol: as §3, §4, §5

ssDNA = experiment: NS-ELISA non-specific binding, ssDNA; conditions: mAb at 100 nM
Protocol: as §3, §4, §5

Molecule	EC50 (OVCAR-3 cells) [nM]	EC50 (IGROV-1 cells) [nM]	EC50 (HCC-78 cells) [nM]	Bmax (MFI) [1]	Curve Hill Slope (h) [1]	Kd ([1]; apparent Kd) [nM]	NS-ELISA binding score (ratio of signal between antibody-treated and untreated), dsDNA (dsDNA)	NS-ELISA binding score (ratio of signal between antibody-treated and untreated), Insulin (Insulin)	cIEF pI [2]	Fab Tm [3] [°C]	NS-ELISA binding score (ratio of signal between antibody-treated and untreated), Heparin [4]	NS-ELISA binding score (ratio of signal between antibody-treated and untreated), ssDNA (ssDNA)
B1	0.49	2.12	1.77	39,758 MFI	1.1	3	–	–	–	–	–	–
B2	–	3.45	5.45	–	–	–	–	–	–	–	–	–
B3	–	–	–	47,763 MFI	0.9	–	1.0	1.03	8.53	79.5	1.05	1.22
